In patent US20260027208A1 (published 2026):

B1: TCR4 (TCR)
TCR alpha: QKEVEQDPGPLSVPEGAIVSLNCTYSNSAFQYFMWYRQYSRKGPELLMYTYSSGNKEDGRFTAQVDKSSKYISLFIRDSQPSDSATYLCAMGALNSGAGSYQLTFGKGTKLSVIPNIQNPDPAVYQLRDSKSSDKSVCLFTDFDSQTNVSQSKDSDVYITDKCVLDMRSMDFKSNSAVAWSNKSDFACANAFNNSIIPEDTFFPSPESSCDVKLVEKSFETDTNLNFQNLSVIGFRILLLKVAGFNLLMTLRLWSS
TCR beta: KAGVTQTPRYLIKTRGQQVTLSCSPISGHRSVSWYQQTPGQGLQFLFEYFSETQRNKGNFPGRFSGRQFSNSRSEMNVSTLELGDSALYLCASSLSSGTGTEAFFGQGTRLTVEDLKNVFPPEVAVFEPSEAEISHTQKATLVCLATGFYPDHVELSWWVNGKEVHSGVCTDPQPLKEQPALNDSRYCLSSRLRVSATFWQNPRNHFRCQVQFYGLSENDEWTQDRAKPVTQIVSAEAWGRADCGFTSESYQQGVLSATILYEILLGKATLYAVLVSALVLMAMVKRKDSRG
B2: TCR6 (TCR)
TCR alpha: GQQLNQSPQSMFIQEGEDVSMNCTSSSIFNTWLWYKQDPGEGPVLLIALYKAGELTSNGRLTAQFGITRKDSFLNISASIPSDVGIYFCAGRREGAQKLVFGQGTRLTINPNIQNPDPAVYQLRDSKSSDKSVCLFTDFDSQTNVSQSKDSDVYITDKCVLDMRSMDFKSNSAVAWSNKSDFACANAFNNSIIPEDTFFPSPESSCDVKLVEKSFETDTNLNFQNLSVIGFRILLLKVAGFNLLMTLRLWSS
TCR beta: GAGVSQSPRYKVAKRGQDVALRCDPISGHVSLFWYQQALGQGPEFLTYFQNEAQLDKSGLPSDRFFAERPEGSVSTLKIQRTQQEDSAVYLCASSSTLMGVNIQYFGAGTRLSVLEDLKNVFPPEVAVFEPSEAEISHTQKATLVCLATGFYPDHVELSWWVNGKEVHSGVCTDPQPLKEQPALNDSRYCLSSRLRVSATFWQNPRNHFRCQVQFYGLSENDEWTQDRAKPVTQIVSAEAWGRADCGFTSESYQQGVLSATILYEILLGKATLYAVLVSALVLMAMVKRKDSRG
B3: TCR91 (TCR)
TCR alpha: AQKVTQAQTEISVVEKEDVTLDCVYETRDTTYYLFWYKQPPSGELVFLIRRNSFDEQNEISGRYSWNFQKSTSSFNFTITASQVVDSAVYFCALNEGGGSTLGRLYFGRGTQLTVWPDIQNPDPAVYQLRDSKSSDKSVCLFTDFDSQTNVSQSKDSDVYITDKCVLDMRSMDFKSNSAVAWSNKSDFACANAFNNSIIPEDTFFPSPESSCDVKLVEKSFETDTNLNFQNLSVIGFRILLLKVAGFNLLMTLRLWSS
TCR beta: MGPGLLHWMALCLLGTGHGDAMVIQNPRYQVTQFGKPVTLSCSQTLNHNVMYWYQQKSSQAPKLLFHYYDKDFNNEADTPDNFQSRRPNTSFCFLDIRSPGLGDAAMYLCATSTGRVYQPQHFGDGTRLSILEDLNKVFPPEVAVFEPSEAEISHTQKATLVCLATGFFPDHVELSWWVNGKEVHSGVCTDPQPLKEQPALNDSRYCLSSRLRVSATFWQNPRNHFRCQVQFYGLSENDEWTQDRAKPVTQIVSAEAWGRADCGFTSVSYQQGVLSATILYEILLGKATLYAVLVSALVLMAMVKRKDFGGSG
B4: TCR5 (TCR)
TCR alpha: RGEDVEQSLFLSVREGDSSVINCTYTDSSSTYLYWYKQEPGAGLQLLTYIFSNMDMKQDQRLTVLLNKKDKHLSLRIADTQTGDSAIYFCAERDAGNNRKLIWGLGTSLAVNPNIQNPDPAVYQLRDSKSSDKSVCLFTDFDSQTNVSQSKDSDVYITDKCVLDMRSMDFKSNSAVAWSNKSDFACANAFNNSIIPEDTFFPSPESSCDVKLVEKSFETDTNLNFQNLSVIGFRILLLKVAGFNLLMTLRLWSS
TCR beta: GAGVSQSPRYKVAKRGQDVALRCDPISGHVSLFWYQQALGQGPEFLTYFQNEAQLDKSGLPSDRFFAERPEGSVSTLKIQRTQQEDSAVYLCASSLEGGDTQYFGPGTRLTVLEDLKNVFPPEVAVFEPSEAEISHTQKATLVCLATGFYPDHVELSWWVNGKEVHSGVCTDPQPLKEQPALNDSRYCLSSRLRVSATFWQNPRNHFRCQVQFYGLSENDEWTQDRAKPVTQIVSAEAWGRADCGFTSESYQQGVLSATILYEILLGKATLYAVLVSALVLMAMVKRKDSRG
B5: TCR1 (TCR)
TCR alpha: GDSVTQMEGPVTLSEEAFLTINCTYTATGYPSLFWYVQYPGEGLQLLLKATKADDKGSNKGFEATYRKETTSFHLEKGSVQVSDSAVYFCALSDRVGGARLMFGDGTQLVVKPNIQNPDPAVYQLRDSKSSDKSVCLFTDFDSQTNVSQSKDSDVYITDKCVLDMRSMDFKSNSAVAWSNKSDFACANAFNNSIIPEDTFFPSPESSCDVKLVEKSFETDTNLNFQNLSVIGFRILLLKVAGFNLLMTLRLWSS
TCR beta: DIYQTPRYLVIGTGKKITLECSQTMGHDKMYWYQQDPGMELHLIHYSYGVNSTEKGDLSSESTVSRIRTEHFPLTLESARPSHTSQYLCASSEGLYNEQFFGPGTRLTVLEDLKNVFPPEVAVFEPSEAEISHTQKATLVCLATGFYPDHVELSWWVNGKEVHSGVCTDPQPLKEQPALNDSRYCLSSRLRVSATFWQNPRNHFRCQVQFYGLSENDEWTQDRAKPVTQIVSAEAWGRADCGFTSESYQQGVLSATILYEILLGKATLYAVLVSALVLMAMVKRKDSRG
B6: TCR2 (TCR)
TCR alpha: AQTVTQSQPEMSVQEAETVTLSCTYDTSENNYYLFWYKQPPSRQMILVIRQEAYKQQNATENRFSVNFQKAAKSFSLKISDSQLGDTAMYFCAFMYPSQGGSEKLVFGKGMKLTVNPNIQNPDPAVYQLRDSKSSDKSVCLFTDFDSQTNVSQSKDSDVYITDKCVLDMRSMDFKSNSAVAWSNKSDFACANAFNNSIIPEDTFFPSPESSCDVKLVEKSFETDTNLNFQNLSVIGFRILLLKVAGFNLLMTLRLWSS
TCR beta: MGPGLLCWVLLCLLGAGSVETGVTQSPTHLIKTRGQQVTLRCSSQSGHNTVSWYQQALGQGPQFIFQYYREEENGRGNFPPRFSGLQFPNYSSELNVNALELDDSALYLCASSSPGFRSYGYTFGSGTRLTVVEDLKNVFPPEVAVFEPSEAEISHTQKATLVCLATGFYPDHVELSWWVNGKEVHSGVCTDPQPLKEQPALNDSRYCLSSRLRVSATFWQNPRNHFRCQVQFYGLSENDEWTQDRAKPVTQIVSAEAWGRADCGFTSESYQQGVLSATILYEILLGKATLYAVLVSALVLMAMVKRKDSRG

Molecular target: T1, KRAS G12D mutant peptide presented by HLA-A*11:01 on cells (human)
Test: cell-based or functional assay

Cmax (%) of CD137 T cell activation by G12D peptide, without knockout of TRAC and TRBC [%]	T cell activation EC50 (CD137 vs G12D peptide dose), TRAC/TRBC double knockout T cells [nM]	T cell activation EC50 (CD137 vs G12D peptide dose), WT TRAC/TRBC T cells [nM]	Binder
16	11.8	49.8	B1
–	14.3	24	B2
14.4	36.5	131	B3
23.9	7.6	36.3	B4
–	64.1	119	B5
42.7	10.1	31.6	B6

Molecular target: T1, KRAS G12D mutant peptide presented by …
Test: cell-based or functional assay
Remark: another data set of the same source

T cell activation EC50 (CD137 vs G12D peptide dose), TRAC/TRBC double knockout T cells [nM]	T cell activation EC50 (CD137 vs G12D peptide dose), WT TRAC/TRBC T cells [nM]	Binder
4.4	31.1	B1
6.4	12.2	B2
14.4	179	B3
9.4	37.8	B4
12.2	51.1	B5
7.3	22.2	B6
